Patent US20260049143A1 (KYMAB, published 2026)

T1: human ICOS expressed on cells (human, UniProt Q9Y6W8 21-199)
T1 sequence: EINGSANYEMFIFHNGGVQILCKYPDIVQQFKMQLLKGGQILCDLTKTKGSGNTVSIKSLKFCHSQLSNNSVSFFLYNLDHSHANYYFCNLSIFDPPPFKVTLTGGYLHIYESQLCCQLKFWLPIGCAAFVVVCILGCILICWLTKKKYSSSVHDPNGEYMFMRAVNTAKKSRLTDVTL

T2: mouse ICOS-mFc (Chimerigen) (mouse, UniProt Q9WVS0 21-141, limits assumed)
T2 construct: Bought fusion; also called mICOS; recombinant mouse ICOS protein; not shown: mouse Fc
T2 sequence: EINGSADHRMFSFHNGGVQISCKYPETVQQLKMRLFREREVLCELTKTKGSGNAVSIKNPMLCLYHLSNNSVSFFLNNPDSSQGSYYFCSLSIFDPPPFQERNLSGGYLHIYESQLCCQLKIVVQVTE

B1: STIM003 (antibody, human IgG1, kappa)
heavy: not shown
light: EIVLTQSPGTLSLSPGERATLSCRASQSVSRSYLAWYQQKRGQAPRLLIYGASSRATGIPDRFSGDGSGTDFTLSISRLEPEDFAVYYCHQYDMSPFTFGPGTKVDIKRTVAAPSVFIFPPSDEQLKSGTASVVCLLNNFYPREAKVQWKVDNALQSGNSQESVTEQDSKDSTYSLSSTLTLSKADYEKHKVYACEVTHQGLSSPVTKSFNRGEC
notes: also called STIM003 IgG1
B2: STIM001_289 (bispecific antibody, V domains shown, not shown: a dimerising Fc or GST)
VH: QVQVVQSGAEVKKPGASVKVSCKASGYTFSTFGITWVRQAPGQGLEWMGWISAYNGDTNYAQNLQGRVIMTTDTSTSTAYMELRSLRSDDTAVYYCARSSGHYYYYGMDVWGQGTTVTVSS
VL: DIVMTQSPLSLPVTPGEPASISCRSSQSLLHSNEYNYLDWYLQKPGQSPQLLIFLGSNRASGVPDRFSGSGSGTDFTLKITRVEAEDVGIYYCMQSLQTPLTFGGGTKVEIK
B3: STIM003_289 (bispecific antibody, V domains shown, not shown: a dimerising Fc or GST)
VH: EVQLVESGGGVVRPGGSLRLSCVASGVTFDDYGMSWVRQAPGKGLEWVSGINWNGGDTDYSDSVKGRFTISRDNAKNSLYLQMNSLRAEDTALYYCARDFYGSGSYYHVPFDYWGQGILVTVSS
VL: EIVLTQSPGTLSLSPGERATLSCRASQSVSRSYLAWYQQKRGQAPRLLIYGASSRATGIPDRFSGDGSGTDFTLSISRLEPEDFAVYYCHQYDMSPFTFGPGTKVDIK
B4: STIM001 (antibody, human IgG1, kappa)
heavy: not shown
light: DIVMTQSPLSLPVTPGEPASISCRSSQSLLHSNEYNYLDWYLQKPGQSPQLLIFLGSNRASGVPDRFSGSGSGTDFTLKITRVEAEDVGIYYCMQSLQTPLTFGGGTKVEIKRTVAAPSVFIFPPSDEQLKSGTASVVCLLNNFYPREAKVQWKVDNALQSGNSQESVTEQDSKDSTYSLSSTLTLSKADYEKHKVYACEVTHQGLSSPVTKSFNRGEC
notes: also called STIM001 IgG1; STIM0001

Legend:
[1] = target: FcγRIIIa on Jurkat NFAT luciferase v-variant effector cells (Promega) (human, UniProt P08637 17-254); assay: cell-based or functional assay
[2] = target: T3, human PD-L1 expressed on cells (human, UniProt Q9NZQ7 19-290); assay: flow cytometry on CHO cells expressing human PD-L1, anti-human IgG PE detection
T3 construct: also called CHO human PD-L1; CHO-S cells transfected with human PD-L1
Procedure: (§1) CHO-S cells untransfected (referred to as WT) or transfected with the cDNA coding for human PD-L1 were diluted in FACS buffer (PBS+1% w/v BSA+0.1% w/v sodium azide) and were distributed to a 96-well V-bottom plate (Greiner) at a density of 5×10⁴ cells per well. […] Plates were centrifuged at 300×g for 3 minutes to supernatant aspirated. 50 μL antibody or mAb² solution were added to cells and incubated at 4° C. for 1 hour. Cells were washed with 150 μL of PBS and centrifuged at 300 g for 3 minutes. Supernatant was aspirated and 150 μL PBS added. This wash step was repeated. […] Cells were incubated for 1 hour at 4° C. in the dark. Cells were washed as previously described. To fix cells, 100 μL 4% v/v paraformaldehyde was added and cells incubated for 20 minutes at 4° C., cells were pelleted by centrifugation at 300×g and the plates resuspended in 100 μL FACS buffer.

[3] = target: T4, mouse PD-L1 expressed on CHO-S cells (mouse, UniProt Q9EP73 19-290); assay: flow cytometry on CHO cells expressing mouse PD-L1, anti-human IgG PE detection
T4 construct: also called mPD-L1; CHO mouse PD-L1
Procedure: as §1, with “mPD-L1” for “the cDNA coding for human PD-L1”

[4] = target: T1, human ICOS expressed on cells; assay: cell-based or functional assay
[5] = target: T1, human ICOS expressed on cells; assay: cell-based or functional assay; remark: listed apart in the source
[6] = target: T2, mouse ICOS-mFc (Chimerigen); assay: DELFIA ELISA, coated mouse ICOS-mFc, mean
Procedure: Recombinant ICOS proteins, human ICOS-mFc or mouse ICOS-mFc (Chimerigen) were diluted in 1×PBS and added to Black Hi-bind plates (Griener) at 1 μg/ml, 50 μl/well. Recombinant PD-L1 proteins, human PD-L1-Flag-His or mouse-His were diluted in 1×PBS and added to Black Hi-bind plates (Griener) at 4 μg/ml, 50 μl/well. The plates were left overnight at 4° C. The next day plates were washed 3× with 300 μl/well of 1×PBS+0.1% Tween and blocked with 200 μl/well of 1×PBS+1% BSA blocking buffer for 1 hr at RT on a plate shaker. Plates were washed 3× with 300 μl/well of 1×PBS+0.1% Tween.
However, human-PD-L1 mAb² antibodies were diluted in 1×PBS+0.1% BSA buffer and diluted 1 in 2 from a starting working concentration of 0.066 μM over an 11 point titration. Titrated antibodies were added to the plates, 50 μl/well and left to incubate for 1 hr at R.T on a plate shaker. Plates were washed 3× with 300 μl/well of 1×PBS+0.1% Tween.
DELFIA® Eu-labelled Anti-human IgG(Perkin-Elmer) was diluted 1:500 in DELFIA Assay buffer (Perkin-Elmer) and added to the assay plate (50 μl/well), left to incubate for 1 hr at RT on a plate shaker. […] After incubation, assay was read on Envision plate reader (Perkin Elmer), Time-resolved fluorescence (TRF) was measured at 615 nm.

FcγRIIIa on Jurkat NFAT luciferase v-variant effector cells (Promega), sequence (P08637 other isoform, or with tags, fused parts or gaps mutant limits assumed): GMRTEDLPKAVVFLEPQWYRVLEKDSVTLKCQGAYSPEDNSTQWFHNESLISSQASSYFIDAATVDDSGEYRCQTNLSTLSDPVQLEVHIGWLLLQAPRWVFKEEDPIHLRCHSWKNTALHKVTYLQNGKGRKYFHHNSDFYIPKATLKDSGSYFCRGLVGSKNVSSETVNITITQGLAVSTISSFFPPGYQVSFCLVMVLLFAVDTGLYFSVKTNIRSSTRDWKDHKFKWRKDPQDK
T3 sequence (Q9NZQ7 19-290 limits assumed): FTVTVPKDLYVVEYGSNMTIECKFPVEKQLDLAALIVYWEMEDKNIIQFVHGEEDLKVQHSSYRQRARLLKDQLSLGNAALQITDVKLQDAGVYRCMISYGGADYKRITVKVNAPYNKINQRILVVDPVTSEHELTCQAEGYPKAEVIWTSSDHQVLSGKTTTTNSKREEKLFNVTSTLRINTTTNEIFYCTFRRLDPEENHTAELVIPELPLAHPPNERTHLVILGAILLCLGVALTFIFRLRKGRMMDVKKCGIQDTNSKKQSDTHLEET
T4 sequence (Q9EP73 19-290 limits assumed): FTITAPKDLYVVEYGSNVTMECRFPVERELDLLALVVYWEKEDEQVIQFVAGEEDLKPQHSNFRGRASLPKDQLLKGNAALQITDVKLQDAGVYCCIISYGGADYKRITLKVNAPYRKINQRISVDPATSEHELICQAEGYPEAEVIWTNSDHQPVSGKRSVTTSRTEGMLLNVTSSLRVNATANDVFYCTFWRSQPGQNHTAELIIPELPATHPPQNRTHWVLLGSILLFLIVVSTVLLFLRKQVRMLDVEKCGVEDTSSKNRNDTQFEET

Binder | EC50, NFAT luciferase reporter, CHO human ICOS target cells, N=1 [1] | EC50, NFAT luciferase reporter, CHO human ICOS target cells, N=2 [1] | EC50, NFAT luciferase reporter, CHO human ICOS target cells, N=3 [1] | EC50, NFAT luciferase reporter, CHO human ICOS target cells, mean [1] | EC50, NFAT luciferase reporter, CHO mouse ICOS target cells, N=1 [1] | EC50, NFAT luciferase reporter, CHO mouse ICOS target cells, N=2 [1] | EC50, NFAT luciferase reporter, CHO mouse ICOS target cells, N=3 [1] | EC50, NFAT luciferase reporter, CHO mouse ICOS target cells, mean [1] | binding result [2] | binding result [3] | EC50, ADCC (BATDA dye release), ICOS-transfected CCRF-CEM targets, NK cells, Donor 326 [4] | EC50, ADCC (BATDA dye release), ICOS-transfected CCRF-CEM targets, NK cells, Donor 334 [4] | EC50, ADCC (BATDA dye release), ICOS-transfected CCRF-CEM targets, NK cells, Donor 341 [4] | EC50, ADCC (BATDA dye release), ICOS-transfected CCRF-CEM targets, NK cells, Median [4] | EC50 of IFN-γ release, plate-bound antibody, human T cells with CD3/CD28 beads, Median [5] | EC50 of IFN-γ release, plate-bound antibody, human T cells with CD3/CD28 beads, donor 276 [5] | EC50 of IFN-γ release, plate-bound antibody, human T cells with CD3/CD28 beads, donor 278 [5] | EC50 of IFN-γ release, plate-bound antibody, human T cells with CD3/CD28 beads, donor 289 [5] | EC50 of IFN-γ release, plate-bound antibody, human T cells with CD3/CD28 beads, donor 295 [5] | EC50 [6]
B1 | 0.326 nM | 0.477 nM | 0.24 nM | 0.347 nM | 0.508 nM | 0.754 nM | 0.703 nM | 0.655 nM | no binding (tested: about 2e-7 M (log M -6.7)) | no binding (tested: about 2e-8 M (log M -7.7)) | 0.0212 nM | 0.0037 nM | 0.0067 nM | 0.0105 nM | 5.55 nM | 7.1 nM | 3.8 nM | ~4 nM | ~11.6 nM | 
B2 |  |  |  |  |  |  |  |  |  |  | 0.0309 nM | 0.0041 nM | ~0.0103 nM | 0.0175 nM | 9.45 nM | ~10 nM | 8.9 nM | 7.1 nM | 11.9 nM | 
B3 |  |  |  |  |  |  |  |  |  |  | 0.0111 nM | 0.0183 nM | 0.0066 nM | 0.012 nM | 8.1 nM | ~6 nM | ~3.8 nM | 10.2 nM | 12.7 nM | 
B4 | 0.456 nM | 0.247 nM | 0.147 nM | 0.283 nM | 0.479 nM | 0.534 nM | 0.579 nM | 0.53 nM | no binding (tested: about 2e-7 M (log M -6.7)) | no binding (tested: about 2e-8 M (log M -7.7)) | 0.0426 nM | 0.0205 nM | 0.0076 nM | 0.0236 nM | 10.7 nM | ~9.9 nM | ~10.2 nM | ~11.2 nM | 14.5 nM | 10.6 nM
